Source: patent publication US20100136580A1 (Genentech, published 2010)
No end group written: not given here.

T1: purified Dvl2PDZ domain polypeptide (human, UniProt O14641 248-364)
T1 construct: range 248-364; As used in the fluorescence polarization assay; also called DvlPDZ domain
T1 sequence (looked up): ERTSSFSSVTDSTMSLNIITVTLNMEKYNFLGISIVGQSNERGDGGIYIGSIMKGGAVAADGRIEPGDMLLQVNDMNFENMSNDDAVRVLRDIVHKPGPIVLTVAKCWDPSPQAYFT

T2: GST-Dvl2PDZ fusion protein (human, UniProt O14641 248-364)
T2 construct: range 248-364; Made with the pGEX E. coli expression system; also called GST-PDZ fusion protein; not shown: glutathione S-transferase (GST) encoded by plasmid pGEX
T2 sequence (looked up): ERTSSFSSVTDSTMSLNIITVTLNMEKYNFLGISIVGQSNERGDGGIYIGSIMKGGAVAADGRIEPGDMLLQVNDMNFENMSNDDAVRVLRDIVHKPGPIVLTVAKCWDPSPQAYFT


Target: DvlPDZ domain (endogenous Dvl in the treated cells)
Experiment: cell-based or functional assay

Binder	inhibition of Wnt3a-stimulated transcriptional activity (TopGlow assay, HEK293 cells) [%]
Ac-RQIKIWFQNRRMKWKKKWYGWL [Ac-… (DVLp_C)]	50

Target: T1, purified Dvl2PDZ domain polypeptide
Experiment: fluorescence polarization competition
Method: (§1) The binding affinities of synthetic peptides were also measured by Flourescence polarization assay. Serial dilution of purified Dvl2PDZ domain polypeptide (1-10 μM) was incubated with 10 nM probe peptide (FAM-KWYGWL-COOH) (SEQ ID NO: 169) in PBS, 0.1% Triton X100 as 30 μl volume in 96-well black HE96 plates (LJL Biosystem, Inc, Calif.), and incubated for 15 minutes at room temperature. Polarization measurements were performed in Analyst platereader (LJL Biosystems, Inc., Sunnyvale, Calif.). […] Competition experiments were performed by addition of serial dilution of the free peptides (0-500 μM) to solution with 10 nM probe and 1 μM Dvl2PDZ. The polarization was measured and IC50 values were derived as described above. Kᵢ values were calculated as described previously.
Flourescence polarization assay was used to measure the affinity of two internal peptide ligands N2 and N3 to DvlPDZ domain.

Binder	fold lower affinity than D1 [fold]
Ac-GEIVLWSDIPG-NH2 (synthetic internal peptide ligand) [Peptide N3 (GEIVLWSDIPG)]	6

Target: T1, purified Dvl2PDZ domain polypeptide
Experiment: fluorescence polarization competition; 10 nM FAM-KWYGWL probe, 1 µM Dvl2PDZ
Method: as §1

Binder	Ki [nM]
Ac-GWKDYGWIDG-NH2 (synthetic internal peptide ligand) [Peptide N2 (GWKDYGWIDG)]	1210
Ac-KWYGWL-OH (synthetic peptide) [Peptide D1 (KWYGWL-COOH)]	725
Ac-GEIVLWSDIPG-NH2 (synthetic internal peptide ligand) [Peptide N3 (GEIVLWSDIPG)]	4620

Target: T2, GST-Dvl2PDZ fusion protein
Experiment: phage display selection on GST-Dvl2PDZ
Method: The libraries were cycled through rounds of binding selection with a GST-Dvl2PDZ fusion protein coated on 96-well Maxisorp immunoplates as the capture target. Phage were propagated in E. coli XL1-blue with M13-KO7 helper phage and 10 μM IPTG. After four rounds of binding selection, individual phage clones were analyzed in a high-throughput phage ELISA, and positive clones were subjected to DNA sequence analysis.
We used decapeptide libraries fused to the C-terminus or N-terminus of the phage coat protein. The library contained NNK degenerate codons that encoded all 20 natural amino acids. The possible occurrence of amber stop codons in the degenerate codon also provided for the display of shorter peptides for the C-terminal library. Each library was cycled through four rounds of binding selection with immobilized GST-Dvl2PDZ fusion protein as the capture target.

Binder	binding result
DTAYKDYGWIGGG [SEQ ID NO 61]	binds
WTIRDYGWLDGGG [SEQ ID NO 79]	binds
SEWKNYGYIGGG [SEQ ID NO 62]	binds
TVVWHDYGWIGGG [SEQ ID NO 65]	binds
DSLKYYGWIGGG [SEQ ID NO 68]	binds
QYRFIDYGWIGGG [SEQ ID NO 69]	binds
AWIVDYGWIDGGG [SEQ ID NO 76]	binds
LVPIFYGWIDGGG [SEQ ID NO 73]	binds
LILVNYGWIDGGG [SEQ ID NO 78]	binds
EWILTDYGVVGGG [SEQ ID NO 63]	binds
LVQLTDYGWIGGG [SEQ ID NO 60]	binds
LWRVTDYGWVGGG [SEQ ID NO 64]	binds
SIIYYGWLDGGG [SEQ ID NO 71]	binds
TEYGWMDYHP [SEQ ID NO 77]	binds
PYTWINYGWVGGG [SEQ ID NO 67]	binds
TRFTNYGWLDGGG [SEQ ID NO 75]	binds
LWRVTDYGWVGGG [SEQ ID NO 58]	binds
TDYGWIDYPP [SEQ ID NO 72]	binds
VWHYYGWLDGGG [SEQ ID NO 80]	binds
SAYKCYGWIDGGG [SEQ ID NO 70]	binds
ASLKYYGWLDGGG [SEQ ID NO 74]	binds
ETSWKQYGWIGGG [SEQ ID NO 66]	binds
TVVWHDYGWIGGG [SEQ ID NO 59]	binds

Target: T1, purified Dvl2PDZ domain polypeptide
Experiment: fluorescence polarization, direct titration of Dvl2PDZ against 10 nM probe
Method: as §1

Binder	Kd [nM]
{FAM}-KWYGWL-OH (fluorescence polarization probe, 10 nM) [probe peptide (FAM-KWYGWL-COOH)]	536

Target: T2, GST-Dvl2PDZ fusion protein
Experiment: competition ELISA; GST-Dvl2PDZ (600 nM) binding to immobilized biotin-KWYGWL
Method: Affinity assays-The binding affinities of peptides for Dvl2PDZ were determined as IC₅₀ values using a competition ELISA, as previously described. The IC₅₀ value was defined as the concentration of peptide that blocked 50% of PDZ domain binding to immobilized peptide. Assay plates were prepared by immobilizing an amino-terminally biotinylated peptide (KWYGWL_-COOH) (SEQ ID NO: 169) on Maxisorp immunoplates coated with neutravidin and blocked with BSA. A fixed concentration of GST-PDZ fusion protein (600 nM) in PBS, 0.5% BSA, 0.1% Tween 20 (PBT buffer) was preincubated for 1 h with serial dilutions of peptide and then transferred to the assay plates. After 15 min incubation, the plates were washed with PBS, 0.05% Tween 20, incubated with a mixture of anti-GST antibody (0.5 μg/m1) and horseradish peroxidase/rabbit anti-mouse IgG antibody conjugate (1:2000 dilution) in PBT buffer, washed again, and detected with TMB peroxidase substrate.

Binder	IC50 [nM]
Ac-KGFGML-OH (synthetic peptide)	243000
Ac-KWYGWL-OH (synthetic peptide) [Peptide D1 (KWYGWL-COOH)]	1340
Ac-KWYGWF (synthetic peptide; D1 with Leu to Phe at position 0) [Peptide D2 (KWYGWF)]	930
Ac-WKWYGWL (synthetic peptide; D1 with a Trp extension at position -6) [Peptide D3 (WKWYGWL)]	140
Ac-WKWYGWF (synthetic peptide; D2 with a Trp extension at position -6) [Peptide D4 (WKWYGWF)]	310
